What was measured:
[1] = target: T1, C-terminal-truncated Rap1 (amino acids 1-169), GST fusion, loaded with mGppNHp (Dictyostelium discoideum, UniProt P18613 1-169); assay: guanine nucleotide dissociation inhibition
T1 sequence: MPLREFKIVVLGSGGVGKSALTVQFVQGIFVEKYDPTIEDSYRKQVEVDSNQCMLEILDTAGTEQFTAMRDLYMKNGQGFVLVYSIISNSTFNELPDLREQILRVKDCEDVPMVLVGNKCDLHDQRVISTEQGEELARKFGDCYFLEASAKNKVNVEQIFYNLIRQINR

[2] = target: RasG, GST fusion, loaded with mGppNHp (Dictyostelium discoideum, UniProt P15064 1-189); assay: guanine nucleotide dissociation inhibition
Sequence of RasG, GST fusion, loaded with mGppNHp (P15064 whole entry, the tested form may be a part): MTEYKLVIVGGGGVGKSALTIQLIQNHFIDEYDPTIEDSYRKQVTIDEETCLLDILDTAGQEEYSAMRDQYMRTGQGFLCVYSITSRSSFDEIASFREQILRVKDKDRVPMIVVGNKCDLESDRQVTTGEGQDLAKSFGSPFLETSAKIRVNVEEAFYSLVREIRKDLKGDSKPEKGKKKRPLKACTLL

B1: PI3K2-RBD (RBD domain of PI3K2, amino acids 757-918) (domain or fragment)
chain: GHIQAELEIFELIGTSFTRVLDQGQEVVSFRRDFAQFRLSNFTSTRNDLSQMIYVSSEPLPLTIPNKITIMVLLPGDGKIIKRVDCCPNSSVGDVKKEIFKKFAMIDRVHTQGKTQDDFVLKVTGFREYILCIHELGNLTSRQRFYPTGSGGDFSLMDYDYI
[1]
  Kd: 40 µM
[2]
  Kd: 24 µM

Reference: publication PMC2836974 (Molecular Biology of the Cell, 2010)
